These results are taken from patent publication US10844127.

Like-named read-outs stand apart in the source and are kept apart here.

Common to all, as to assay: cell-based or functional assay
The target in experiment [1] is human EGFR, full length (human) (UniProt P00533).
Experiment [2] addresses human HER3 (ErbB-3) on BxPC-3 cells (human) (UniProt P21860).
Experiment [3] deals with human EGFR, full length (human) (UniProt P00533). The source holds these as a separate data set.
For experiment [4], the target named is human HER3 (ErbB-3) on BxPC-3 cells (human) (UniProt P21860). The source holds these as a separate data set.

B1: MEHD7945A (antibody, INN chains, looked up, V domains shown)
VH: EVQLVESGGGLVQPGGSLRLSCAASGFTLSGDWIHWVRQAPGKGLEWVGEISAAGGYTDYADSVKGRFTISADTSKNTAYLQMNSLRAEDTAVYYCARESRVSFEAAMDYWGQGTLVTVSS
VL: DIQMTQSPSSLSASVGDRVTITCRASQNIATDVAWYQQKPGKAPKLLIYSASFLYSGVPSRFSGSGSGTDFTLTISSLQPEDFATYYCQQSEPEPYTFGQGTKVEIK
Take B1: the IC50 for BxPC-3 ligand-driven cell proliferation inhibition (pM) in experiment [1] stood at 287 pM; in experiment [2] it was 287 pM; in experiment [3] it was 260 pM; in experiment [4], 260 pM.
